This note sets out measurements from patent US20200292536A1.

Test [1] addresses BCL2 peptide Ac-…-amide (amino acids 41-54 of human BCL2 with linkers) (human). As to the kind of experiment: imaging mass cytometry; peptide 2.50E-05 M in core (second core); Ab 5 ug/ml.
Test [2] has the same target. As to the kind of experiment: imaging mass cytometry; peptide 2.50E-07 M in core; Ab 1 ug/ml.
Test [3] shares this target. As to the kind of experiment: imaging mass cytometry; peptide 2.50E-07 M in core; Ab 5 ug/ml.
The target of test [4] is Bovine serum albumin (BSA; Ultra Pure) (bovine) (UniProt P02769). As to the kind of experiment: imaging mass cytometry; no peptide (background core); Ab 1 ug/ml.
Chain of UniProt P02769 (P02769 25-607 limits assumed): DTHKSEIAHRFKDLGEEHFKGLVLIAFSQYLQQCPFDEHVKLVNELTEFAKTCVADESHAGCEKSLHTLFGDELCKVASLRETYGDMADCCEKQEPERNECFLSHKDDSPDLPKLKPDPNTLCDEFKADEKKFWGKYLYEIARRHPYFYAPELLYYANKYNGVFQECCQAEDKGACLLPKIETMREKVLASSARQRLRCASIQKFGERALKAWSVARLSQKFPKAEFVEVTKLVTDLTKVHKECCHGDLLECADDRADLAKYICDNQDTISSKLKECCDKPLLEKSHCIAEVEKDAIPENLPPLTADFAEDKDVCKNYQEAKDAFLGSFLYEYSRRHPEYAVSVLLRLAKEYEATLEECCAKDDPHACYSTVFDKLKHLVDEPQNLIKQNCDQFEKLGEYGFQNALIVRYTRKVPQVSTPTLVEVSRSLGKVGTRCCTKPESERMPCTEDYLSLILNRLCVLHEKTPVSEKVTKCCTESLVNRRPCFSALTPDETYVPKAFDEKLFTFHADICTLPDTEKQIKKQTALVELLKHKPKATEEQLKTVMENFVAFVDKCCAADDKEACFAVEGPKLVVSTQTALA
Test [5] deals with BCL2 peptide Ac-…-amide (amino acids 41-54 of human BCL2 with linkers) (human). As to the kind of experiment: imaging mass cytometry; peptide 2.50E-05 M in core; Ab 1 ug/ml.
Chain of BCL2 peptide Ac-…-amide (amino acids 41-54 of human BCL2 with linkers) (human) (peptide, as listed by the source): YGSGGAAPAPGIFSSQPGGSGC
Test [6] has the same target. As to the kind of experiment: imaging mass cytometry; peptide 2.50E-06 M in core (second core); Ab 5 ug/ml.
The target is the same in test [7]. As to the kind of experiment: imaging mass cytometry; peptide 2.50E-07 M in core (second core); Ab 10 ug/ml.
The target is the same in test [8]. As to the kind of experiment: imaging mass cytometry; peptide 2.50E-04 M in core (second core); Ab 10 ug/ml.
Test [9] shares this target. As to the kind of experiment: imaging mass cytometry; peptide 2.50E-08 M in core.
Test [10] addresses Bovine serum albumin (BSA; Ultra Pure) (bovine) (UniProt P02769). As to the kind of experiment: imaging mass cytometry; no peptide (background core); Ab 5 ug/ml.
Test [11] has as its target BCL2 peptide Ac-…-amide (amino acids 41-54 of human BCL2 with linkers) (human). As to the kind of experiment: imaging mass cytometry; peptide 2.50E-05 M in core; Ab 10 ug/ml.

On to Fluidigm EPR17509-^146Nd antibody, for which the Integrated Ion counts (per 150 micron square ROI) was 15100 ion counts in test [1]; 1580 ion counts in test [2]; 1370 ion counts in test [3]; 1350 ion counts in test [4]; 32400 ion counts in [5]; 3900 ion counts in [6]. Moreover, the Integrated Ion counts (per 150 micron square ROI) was 1760 ion counts in test [7], 880000 ion counts in test [8], 1080 ion counts in test [10] and 39300 ion counts in [11]. In test [9], the Average Ion count came out at 1310 ion counts. This substance also gave an Ion count above background in test [9] of 134 ion counts. Further, the Moles ^146Nd Ab detected per ROI in test [9] was determined as 7.5e-20 mol. In test [9], this substance showed a ^146Nd Ab/peptide of 3.33%.
